Experimental data taken from publication PMC9482650, “Quantitative fragmentomics allow affinity mapping of interactomes” (Nature Communications, 2022).

T1: SNTG2, Q9NY99
T1 sequence (Q9NY99 68-166, limits assumed, looked up): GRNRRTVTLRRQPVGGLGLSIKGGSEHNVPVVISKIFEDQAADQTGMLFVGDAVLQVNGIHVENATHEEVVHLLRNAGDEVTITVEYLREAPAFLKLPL

T2: APBA1_1, Q02410
T2 sequence (Q02410 651-752, limits assumed, looked up): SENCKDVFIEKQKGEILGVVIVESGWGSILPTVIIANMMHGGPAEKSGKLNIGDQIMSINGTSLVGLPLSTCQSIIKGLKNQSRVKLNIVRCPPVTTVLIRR

T3: LIN7C, Q9NUP9
T3 sequence (Q9NUP9 88-185, limits assumed, looked up): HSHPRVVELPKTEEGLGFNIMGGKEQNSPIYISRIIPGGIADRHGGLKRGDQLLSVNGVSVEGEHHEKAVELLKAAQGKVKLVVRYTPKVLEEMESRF

T4: GRIP1_5, Q9Y3R0
T4 sequence (Q9Y3R0 568-668, limits assumed, looked up): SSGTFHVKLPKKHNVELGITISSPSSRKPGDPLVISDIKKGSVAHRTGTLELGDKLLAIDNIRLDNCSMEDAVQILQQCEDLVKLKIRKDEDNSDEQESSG

T5: NHERF3_4, Q5T2W1
T5 sequence (Q5T2W1 373-468, limits assumed, looked up): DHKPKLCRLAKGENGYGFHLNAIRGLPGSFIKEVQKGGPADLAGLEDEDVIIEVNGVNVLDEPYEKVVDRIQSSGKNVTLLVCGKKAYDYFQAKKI

T6: LNX2_3, Q8N448
T6 sequence (Q8N448 463-564, limits assumed, looked up): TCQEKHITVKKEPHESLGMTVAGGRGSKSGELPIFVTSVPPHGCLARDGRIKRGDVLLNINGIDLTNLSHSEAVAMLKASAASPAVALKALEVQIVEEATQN

T7: MPDZ_12, O75970
T7 sequence (O75970 1857-1958, limits assumed, looked up): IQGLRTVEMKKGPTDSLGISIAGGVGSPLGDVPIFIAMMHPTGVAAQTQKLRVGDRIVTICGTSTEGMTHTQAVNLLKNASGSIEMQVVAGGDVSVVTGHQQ

T8: DVL3, Q92997
T8 sequence (Q92997 244-331, limits assumed, looked up): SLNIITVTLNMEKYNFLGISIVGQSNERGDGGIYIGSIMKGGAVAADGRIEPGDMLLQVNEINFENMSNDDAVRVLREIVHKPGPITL

T9: PDZD2_2, O15018
T9 sequence (O15018 329-429, limits assumed, looked up): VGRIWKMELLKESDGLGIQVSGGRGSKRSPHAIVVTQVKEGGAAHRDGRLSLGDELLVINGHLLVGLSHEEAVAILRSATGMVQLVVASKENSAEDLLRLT

T10: APBA1_2, Q02410
T10 sequence (Q02410 742-832, limits assumed, looked up): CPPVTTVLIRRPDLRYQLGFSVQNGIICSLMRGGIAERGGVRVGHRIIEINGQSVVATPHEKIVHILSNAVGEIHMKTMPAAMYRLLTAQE

T11: SNTG1, Q9NSN8
T11 sequence (Q9NSN8 52-150, limits assumed, looked up): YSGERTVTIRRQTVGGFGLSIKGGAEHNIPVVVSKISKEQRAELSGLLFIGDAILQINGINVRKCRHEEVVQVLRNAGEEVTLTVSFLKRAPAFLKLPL


What was measured:
Test in all cases: holdup assay
Design in all cases: key: below the threshold = too weak to quantify, mostly under pKd 3.1 to 4
Conditions in all cases: plain residues with an end cap or a label only (N-terminal biotin on a linker: ado-ado)
[1] = molecular target: DLG4_1, P78352
[2] = molecular target: T1, SNTG2, Q9NY99
[3] = molecular target: FRMPD2_1, Q68DX3
[4] = molecular target: T2, APBA1_1, Q02410
[5] = molecular target: T3, LIN7C, Q9NUP9
[6] = molecular target: MAST2, Q6P0Q8
[7] = molecular target: T4, GRIP1_5, Q9Y3R0
[8] = molecular target: T5, NHERF3_4, Q5T2W1
[9] = molecular target: NHERF4_4, Q86UT5
[10] = molecular target: Inadl_8, Q8NI35
[11] = molecular target: T6, LNX2_3, Q8N448
[12] = molecular target: DLG1_1, Q12959
[13] = molecular target: SCRIB_2, Q14160
[14] = molecular target: IL16_3, Q14005
[15] = molecular target: GRIP2_7, Q9C0E4
[16] = molecular target: Inadl_10, Q8NI35
[17] = molecular target: T7, MPDZ_12, O75970
[18] = molecular target: T8, DVL3, Q92997
[19] = molecular target: T9, PDZD2_2, O15018
[20] = molecular target: T10, APBA1_2, Q02410
[21] = molecular target: DLG4_3, P78352
[22] = molecular target: PTPN3, P26045
[23] = molecular target: GIPC2, Q8TF65
[24] = molecular target: LIMK2, P53671
[25] = molecular target: T11, SNTG1, Q9NSN8
[26] = molecular target: GORASP2, Q9H8Y8
[27] = molecular target: GRIP2_4, Q9C0E4
Chain of GRIP2_4, Q9C0E4 (Q9C0E4 446-548): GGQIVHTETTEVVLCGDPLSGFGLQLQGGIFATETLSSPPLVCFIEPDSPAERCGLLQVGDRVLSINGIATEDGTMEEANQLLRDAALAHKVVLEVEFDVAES

Chain of PTPN3, P26045 (P26045 505-587): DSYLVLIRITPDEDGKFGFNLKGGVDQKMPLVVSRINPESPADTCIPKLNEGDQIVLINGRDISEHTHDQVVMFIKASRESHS
Chain of LIMK2, P53671 (P53671 143-248): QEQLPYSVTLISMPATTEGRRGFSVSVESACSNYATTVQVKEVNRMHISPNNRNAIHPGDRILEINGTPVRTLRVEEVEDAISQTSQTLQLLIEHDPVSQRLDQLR
Chain of DLG4_1, P78352 (P78352 62-152): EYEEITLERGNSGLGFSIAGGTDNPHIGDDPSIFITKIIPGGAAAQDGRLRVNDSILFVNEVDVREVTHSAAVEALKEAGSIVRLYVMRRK
Chain of DLG4_3, P78352 (P78352 306-403): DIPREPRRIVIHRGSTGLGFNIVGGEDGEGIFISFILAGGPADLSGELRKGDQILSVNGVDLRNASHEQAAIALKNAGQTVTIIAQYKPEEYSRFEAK
Chain of Inadl_10, Q8NI35 (Q8NI35 1673-1763): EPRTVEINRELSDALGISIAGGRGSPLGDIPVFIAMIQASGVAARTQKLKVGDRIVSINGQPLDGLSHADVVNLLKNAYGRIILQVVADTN
Chain of GIPC2, Q8TF65 (Q8TF65 112-203): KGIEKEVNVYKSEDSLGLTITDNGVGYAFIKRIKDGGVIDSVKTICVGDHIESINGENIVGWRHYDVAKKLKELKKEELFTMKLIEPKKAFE
Chain of GRIP2_7, Q9C0E4 (Q9C0E4 934-1023): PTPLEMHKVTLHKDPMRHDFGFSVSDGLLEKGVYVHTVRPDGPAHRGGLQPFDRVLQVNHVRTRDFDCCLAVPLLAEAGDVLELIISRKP
Chain of IL16_3, Q14005 (Q14005 1107-1207): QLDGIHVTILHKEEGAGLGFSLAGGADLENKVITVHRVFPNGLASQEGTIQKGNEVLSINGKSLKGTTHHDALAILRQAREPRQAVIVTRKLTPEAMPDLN
Chain of NHERF4_4, Q86UT5 (Q86UT5 464-550): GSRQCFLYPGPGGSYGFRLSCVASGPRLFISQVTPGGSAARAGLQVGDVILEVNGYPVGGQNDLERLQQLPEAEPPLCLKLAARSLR
Chain of SCRIB_2, Q14160 (Q14160 857-960): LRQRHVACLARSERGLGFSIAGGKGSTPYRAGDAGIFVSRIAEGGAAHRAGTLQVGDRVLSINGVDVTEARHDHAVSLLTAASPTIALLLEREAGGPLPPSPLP
Chain of MAST2, Q6P0Q8 (Q6P0Q8 1099-1202): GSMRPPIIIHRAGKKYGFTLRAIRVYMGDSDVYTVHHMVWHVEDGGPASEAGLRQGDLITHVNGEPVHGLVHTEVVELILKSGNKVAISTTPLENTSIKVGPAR
Chain of Inadl_8, Q8NI35 (Q8NI35 1425-1530): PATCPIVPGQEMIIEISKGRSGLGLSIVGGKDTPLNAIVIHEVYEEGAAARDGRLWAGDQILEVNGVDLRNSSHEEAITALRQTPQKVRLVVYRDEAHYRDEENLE
Chain of FRMPD2_1, Q68DX3 (Q68DX3 770-861): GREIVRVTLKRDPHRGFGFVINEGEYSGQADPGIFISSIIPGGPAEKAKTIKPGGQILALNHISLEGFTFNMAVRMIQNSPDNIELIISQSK

| pKd [1] | pKd [2] | pKd [3] | pKd [4] | pKd [5] | pKd [6] | pKd [7] | pKd [8] | pKd [9] | pKd [10] | pKd [11] | pKd [12] | pKd [13] | pKd [14] | pKd [15] | pKd [16] | pKd [17] | pKd [18] | pKd [19] | pKd [20] | Binder | also measured |
| --- | --- | --- | --- | --- | --- | --- | --- | --- | --- | --- | --- | --- | --- | --- | --- | --- | --- | --- | --- | --- | --- |
| below the threshold | below the threshold | below the threshold | 3.56 | 3.96 | 4.32 | below the threshold | below the threshold | 4.1 | below the threshold | below the threshold | below the threshold | 3.57 | below the threshold | 3.94 | below the threshold | below the threshold | 4.48 | 4.86 | 3.79 | SLNANEVEWF [RNF130, Q86XS8] | pKd [21]: below the threshold; pKd [22]: 4.36; pKd [23]: below the threshold; pKd [24]: 3.5; pKd [25]: below the threshold; pKd [26]: 4.7; pKd [27]: below the threshold |
| 3.68 | 3.98 | below the threshold | below the threshold | below the threshold | 5.61 | below the threshold | 3.47 | below the threshold | below the threshold | below the threshold | 3.7 | 3.52 | below the threshold | below the threshold | below the threshold | below the threshold | below the threshold | 4.65 | 4.23 | AAVENKVTDL [PLXNB1, O43157] | pKd [21]: below the threshold; pKd [22]: 4.68; pKd [23]: below the threshold; pKd [24]: below the threshold; pKd [25]: 3.74; pKd [26]: 3.9; pKd [27]: below the threshold |

The remaining lines, values behind:

| Binder | pKd [1] | pKd [2] | pKd [3] | pKd [4] | pKd [5] | pKd [6] | pKd [7] | pKd [8] | pKd [9] | pKd [10] | pKd [11] | pKd [12] | pKd [13] | pKd [14] | pKd [15] | pKd [16] | pKd [17] | pKd [18] | pKd [19] | pKd [20] | also measured |
| --- | --- | --- | --- | --- | --- | --- | --- | --- | --- | --- | --- | --- | --- | --- | --- | --- | --- | --- | --- | --- | --- |
| KPGKGSETVV [FZD4, Q9ULV1] | 4.85 | 4.26 | 3.54 | below the threshold | 4.08 | 4.91 | below the threshold | below the threshold | below the threshold | 3.49 | below the threshold | 4.65 | 3.83 | below the threshold | below the threshold | below the threshold | below the threshold | below the threshold | 3.76 | 3.64 | pKd [21]: 3.79; pKd [22]: 4.13; pKd [23]: 3.57; pKd [24]: below the threshold; pKd [25]: 3.91; pKd [26]: 4.24; pKd [27]: below the threshold |
| PYPTADHMLA [JUP, P14923] | below the threshold | below the threshold | below the threshold | below the threshold | 3.87 | below the threshold | below the threshold | below the threshold | below the threshold | below the threshold | below the threshold | below the threshold | below the threshold | below the threshold | below the threshold | below the threshold | below the threshold | below the threshold | below the threshold | below the threshold | pKd [21]: below the threshold; pKd [22]: 3.97; pKd [23]: below the threshold; pKd [24]: below the threshold; pKd [25]: below the threshold; pKd [26]: below the threshold; pKd [27]: below the threshold |
| TRKRSGEAAV [PFKM, P08237] | below the threshold | below the threshold | 4 | below the threshold | below the threshold | 4.16 | below the threshold | below the threshold | below the threshold | 3.57 | below the threshold | below the threshold | below the threshold | below the threshold | below the threshold | below the threshold | below the threshold | below the threshold | below the threshold | 3.9 | pKd [21]: below the threshold; pKd [22]: 4.15; pKd [23]: below the threshold; pKd [24]: below the threshold; pKd [25]: below the threshold; pKd [26]: 3.61; pKd [27]: below the threshold |
